Legend:
HER2-Fc fusion protein = molecular target: T1, HER2-Fc fusion protein (UniProt P04626 23-652, limits assumed); assay: ELISA on immobilized HER2-Fc
T1 construct: extracellular domain; also called Fc fusion protein of the extracellular region of HER2; not shown: Fc part

[1] = molecular target: T2, recombinant TRAIL-R1 (receptor-Fc fusion protein) (UniProt O00220 24-239, limits assumed); assay: ELISA on recombinant receptor-Fc
T2 construct: also called TRAIL receptor 1; not shown: Fc part

EGFR on tumor cell lines [2] = molecular target: T3, EGFR on tumor cell lines (UniProt P00533 25-1210, limits assumed); assay: cell-based or functional assay
EGFR on tumor cell lines [3] = molecular target: T3, EGFR on tumor cell lines; assay: cell-based or functional assay; remark: listed apart in the source
EGFR-Fc fusion protein [4] = molecular target: T4, EGFR-Fc fusion protein (UniProt P00533 25-645, limits assumed); assay: ELISA on immobilized receptor-Fc
T4 construct: extracellular domain; also called Fc fusion protein of the extracellular region of EGFR; immobilized EGFR; not shown: Fc part

HER3-Fc fusion protein = molecular target: T5, HER3-Fc fusion protein (UniProt P21860 20-643, limits assumed); assay: ELISA on immobilized receptor-Fc
T5 construct: extracellular domain; Negative control; also called Fc fusion protein of the extracellular region of HER3; not shown: Fc part

EGFR on tumor cell lines [5] = molecular target: T3, EGFR on tumor cell lines; assay: flow cytometry, NCI-H460 cells
Protocol: Bound proteins were detected with a FITC-labelled anti-His-tag antibody.
Furthermore, the antibody-MHD2 fusion proteins were analyzed by flow cytometry for binding to different tumor cell lines expressing various amounts of EGFR and HER2 (FIG. 4b).

CEA = molecular target: T6, CEA (UniProt P06731 35-685, limits assumed); assay: ELISA on immobilized CEA
T6 construct: also called immobilized CEA; carcinoembryonic antigen
T6 sequence (looked up): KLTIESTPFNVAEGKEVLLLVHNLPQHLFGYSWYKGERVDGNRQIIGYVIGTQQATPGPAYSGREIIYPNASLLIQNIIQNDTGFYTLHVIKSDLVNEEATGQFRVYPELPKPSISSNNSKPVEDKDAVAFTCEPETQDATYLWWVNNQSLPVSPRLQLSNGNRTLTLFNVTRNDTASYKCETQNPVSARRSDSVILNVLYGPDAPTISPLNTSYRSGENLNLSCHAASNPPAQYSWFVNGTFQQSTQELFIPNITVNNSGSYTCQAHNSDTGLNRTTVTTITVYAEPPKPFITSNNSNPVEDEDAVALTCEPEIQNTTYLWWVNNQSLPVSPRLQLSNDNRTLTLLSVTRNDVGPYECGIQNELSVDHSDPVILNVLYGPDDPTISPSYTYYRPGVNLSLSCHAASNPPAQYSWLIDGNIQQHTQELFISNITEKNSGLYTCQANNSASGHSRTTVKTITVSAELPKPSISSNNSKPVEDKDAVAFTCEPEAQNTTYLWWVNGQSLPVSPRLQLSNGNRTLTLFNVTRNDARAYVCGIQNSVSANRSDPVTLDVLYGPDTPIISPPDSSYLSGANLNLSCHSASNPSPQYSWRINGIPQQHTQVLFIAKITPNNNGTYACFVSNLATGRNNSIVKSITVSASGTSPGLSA
Source text: Bound antibodies were detected with an HRP-conjugated anti-His-tag antibody.
A bispecific single-chain diabody (scDb)-EHD2 fusion protein was generated by fusing a scDb directed against CEA and human CD3 to the N-terminus of the EHD2 (FIG. 27a, b). The construct was cloned into mammalian expression vector pSecTagA and produced in stably transfected HEK293 cells. Protein was purified from the cell culture supernatant by immobilized metal affinity chromatography.

EGFR-Fc fusion protein [6] = molecular target: T4, EGFR-Fc fusion protein; assay: ELISA on immobilized EGFR-Fc
EGFR on tumor cell lines [7] = molecular target: T3, EGFR on tumor cell lines; assay: flow cytometry, Colo205 and NCI-H460 cells
EGFR-Fc fusion protein [8] = molecular target: T4, EGFR-Fc fusion protein; assay: ELISA titration on immobilized EGFR; the scFv is the weaker comparator

B1: scFvEGFR-EHD2-scTRAIL (other)
chain: DYKDDDDKGGGGSAAQPAMAEVQLVESGGGLVQPGGSLRLSCAASGFSLTNYGVHWVRQAPGKGLEWLGVIWSGGNTDYNTPFTSRFTISRDNSKNTLYLQMNSLRAEDTAVYYCARALTYYDYEFAYWGQGTTVTVSSGGGGSGGGGSGGGGSDIQLTQSPSFLSASVGDRVTITCRASQSIGTNIHWYQQKPGKAPKLLIKYASESISGVPSRFSGSGSGTEFTLTISSLQPEDFATYYCQQNNNWPTTFGAGTKLEIKRAAAGGSGGDFTPPTVKILQSSCDGGGHFPPTIQLLCLVSGYTPGTINITWLEDGQVMDVDLSTASTTQEGELASTQSELTLSQKHWLSDRTYTCQVTYQGHTFEDSTKKCADSNGGSGGEFTRGTSEETISTVQEKQQNISPLVRERGPQRVAAHITGTRGRSNTLSSPNSKNEKALGRKINSWESSRSGHSFLSNLHLRNGELVIHEKGFYYIYSQTYFRFQEEIKENTKNDKQMVQYIYKYTSYPDPILLMKSARNSCWSKDAEYGLYSIYQGGIFELKENDRIFVSVTNEHLIDMDHEASFFGAFLVGGGGSGGGSTSEETISTVQEKQQNISPLVRERGPQRVAAHITGTRGRSNTLSSPNSKNEKALGRKINSWESSRSGHSFLSNLHLRNGELVIHEKGFYYIYSQTYFRFQEEIKENTKNDKQMVQYIYKYTSYPDPILLMKSARNSCWSKDAEYGLYSIYQGGIFELKENDRIFVSVTNEHLIDMDHEASFFGAFLVGGGGSGGGSTSEETISTVQEKQQNISPLVRERGPQRVAAHITGTRGRSNTLSSPNSKNEKALGRKINSWESSRSGHSFLSNLHLRNGELVIHEKGFYYIYSQTYFRFQEEIKENTKNDKQMVQYIYKYTSYPDPILLMKSARNSCWSKDAEYGLYSIYQGGIFELKENDRIFVSVTNEHLIDMDHEASFFGAFLVG
notes: Homodimer: anti-EGFR scFv, EHD2, single-chain TRAIL, FLAG-tagged; also called scFv-EHD2-scTRAIL; anti-EGFR scFv-EHD2-scTRAIL
**Q.** What does the source list for B1?
**A.** binding result (HER2-Fc fusion protein): no binding; binding result [1]: binds; IC50 (nM), in vitro cytotoxicity, Colo205, no bortezomib, no cetuximab (EGFR on tumor cell lines [2]): 0.5 nM; IC50 (nM), in vitro cytotoxicity, Colo205, with bortezomib, no cetuximab (EGFR on tumor cell lines [2]): 0.14 nM; IC50 (nM), in vitro cytotoxicity, Colo205, with bortezomib, with cetuximab (EGFR on tumor cell lines [2]): 1.43 nM; IC50 (nM), in vitro cytotoxicity, NCI-H460, no bortezomib, no cetuximab (EGFR on tumor cell lines [2]): 0.32 nM; IC50 (nM), in vitro cytotoxicity, NCI-H460, with bortezomib, no cetuximab (EGFR on tumor cell lines [2]): 0.02 nM; IC50 (nM), in vitro cytotoxicity, NCI-H460, with bortezomib, with cetuximab (EGFR on tumor cell lines [2]): 0.15 nM; cytotoxic activity against EHD2-scTRAIL, no bortezomib (NCI-H460, Colo205) (EGFR on tumor cell lines [3]): ~20 fold

B2: scFvEGFR-MHD2 (scFv)
chain: DAAQPAMAEVQLVESGGGLVQPGGSLRLSCAASGFSLTNYGVHWVRQAPGKGLEWLGVIWSGGNTDYNTPFTSRFTISRDNSKNTLYLQMNSLRAEDTAVYYCARALTYYDYEFAYWGQGTTVTVSSGGGGSGGGGSGGGGSDIQLTQSPSFLSASVGDRVTITCRASQSIGTNIHWYQQKPGKAPKLLIKYASESISGVPSRFSGSGSGTEFTLTISSLQPEDFATYYCQQNNNWPTTFGAGTKLEIKRGSLGGSGGAELPPKVSVFVPPRDGFFGNPRKSKLICQATGFSPRQIQVSWLREGKQVGSGVTTDQVQAEAKESGPTTYKVTSTLTIKESDWLGQSMFTCRVDHRGLTFQQNASSMCVPDGGGSGGGTGSEFAAAHHHHHH
notes: Bivalent homodimer: humanized anti-EGFR scFv (hu225) at the N-terminus of the IgM heavy chain domain 2, C-terminal His6; also called scFvA-MHD2; scFv-MHD2
**Q.** Does B2 bind (EGFR-Fc fusion protein [4])?
**A.** Result: binds

**Q.** Does B2 bind (HER3-Fc fusion protein)?
**A.** Result: no binding

**Q.** Does B2 bind (EGFR on tumor cell lines [5])?
**A.** Result: binds

B3: Anti-CEA scFv-EHD2 (scFv)
chain: DAAQPAMAQVKLQQSGAELVRSGTSVKLSCTASGFNIKDSYMHWLRQGPEQGLEWIGWIDPENGDTEYAPKFQGKATFTTDTSSNTAYLQLSSLTSEDTAVYYCNEGTPTGPYYFDYWGQGTTVTVSSGGGGSGGGGSGGGGSDIELTQSPAIMSASPGEKVTITCSASSSVSYMHWFQQKPGTSPKLWIYSTSNLASGVPARFSGSGSGTSYSLTISRMEAEDAATYYCQQRSSYPLTFGAGTKLELKRGSLGGSGGDFTPPTVKILQSSCDGGGHFPPTIQLLCLVSGYTPGTINITWLEDGQVMDVDLSTASTTQEGELASTQSELTLSQKHWLSDRTYTCQVTYQGHTFEDSTKKCADSNGGGSGGGTGSEFAAAHHHHHH
notes: Bivalent homodimer, His6; also called scFv-EHD2 fusion protein directed against CEA
**Q.** Does B3 bind (CEA)?
**A.** Result: binds

B4: Anti-CEAxCD3 scDb-EHD2 (bispecific antibody)
chain: DAAQPAMAQVKLQQSGAELVRSGTSVKLSCTASGFNIKDSYMHWLRQGPEQGLEWIGWIDPENGDTEYAPKFQGKATFTTDTSSNTAYLQLSSLTSEDTAVYYCNEGTPTGPYYFDYWGQGTTVTVSSGGGGSDIQMTQSPSSLSASVGDRVTITCRASQDIRNYLNWYQQKPGKAPKLLIYYTSRLESGVPSRFSGSGSGTDYTLTISSLQPEDFATYYCQQGNTLPWTFGQGTKVEIKRGGGGSGGRASGGGGSEVQLVESGGGLVQPGGSLRLSCAASGYSFTGYTMNWVRQAPGKGLEWVALINPYKGVSTYNQKFKDRFTISVDKSKNTAYLQMNSLRAEDTAVYYCARSGYYGDSDWYFDVWGQGTLVTVSSGGGGSDIELTQSPAIMSASPGEKVTITCSASSSVSYMHWFQQKPGTSPKLWIYSTSNLASGVPARFSGSGSGTSYSLTISRMEAEDAATYYCQQRSSYPLTFGAGTKLELKRGSLGGSGGDFTPPTVKILQSSCDGGGHFPPTIQLLCLVSGYTPGTINITWLEDGQVMDVDLSTASTTQEGELASTQSELTLSQKHWLSDRTYTCQVTYQGHTFEDSTKKCADSNGGGSGGGTGSEFAAAHHHHHH
notes: Homodimer: scDb against CEA and human CD3 at the N-terminus of EHD2, His6; also called bispecific single-chain diabody (scDb)-EHD2 fusion protein
**Q.** Does B4 bind (CEA)?
**A.** Result: binds

B5: scFvEGFR-EHD2 (scFv)
chain: DAAQPAMAEVQLVESGGGLVQPGGSLRLSCAASGFSLTNYGVHWVRQAPGKGLEWLGVIWSGGNTDYNTPFTSRFTISRDNSKNTLYLQMNSLRAEDTAVYYCARALTYYDYEFAYWGQGTTVTVSSGGGGSGGGGSGGGGSDIQLTQSPSFLSASVGDRVTITCRASQSIGTNIHWYQQKPGKAPKLLIKYASESISGVPSRFSGSGSGTEFTLTISSLQPEDFATYYCQQNNNWPTTFGAGTKLEIKRGSLGGSGGDFTPPTVKILQSSCDGGGHFPPTIQLLCLVSGYTPGTINITWLEDGQVMDVDLSTASTTQEGELASTQSELTLSQKHWLSDRTYTCQVTYQGHTFEDSTKKCADSNGGGSGGGTGSEFAAAHHHHHH
notes: Bivalent homodimer: anti-EGFR scFv at the N-terminus of the IgE heavy chain domain 2, hexahistidyl-tagged; also called scFv-EHD2
**Q.** Does B5 bind (EGFR-Fc fusion protein [6])?
**A.** Result: binds

**Q.** Does B5 bind (HER2-Fc fusion protein)?
**A.** Result: no binding

**Q.** Does B5 bind (EGFR on tumor cell lines [7])?
**A.** Result: binds

B6: EHD2-scTRAIL (ligand)
chain: DYKDDDDKGGGGSAAQPADFTPPTVKILQSSCDGGGHFPPTIQLLCLVSGYTPGTINITWLEDGQVMDVDLSTASTTQEGELASTQSELTLSQKHWLSDRTYTCQVTYQGHTFEDSTKKCADSNGGSGGEFTRGTSEETISTVQEKQQNISPLVRERGPQRVAAHITGTRGRSNTLSSPNSKNEKALGRKINSWESSRSGHSFLSNLHLRNGELVIHEKGFYYIYSQTYFRFQEEIKENTKNDKQMVQYIYKYTSYPDPILLMKSARNSCWSKDAEYGLYSIYQGGIFELKENDRIFVSVTNEHLIDMDHEASFFGAFLVGGGGSGGGSTSEETISTVQEKQQNISPLVRERGPQRVAAHITGTRGRSNTLSSPNSKNEKALGRKINSWESSRSGHSFLSNLHLRNGELVIHEKGFYYIYSQTYFRFQEEIKENTKNDKQMVQYIYKYTSYPDPILLMKSARNSCWSKDAEYGLYSIYQGGIFELKENDRIFVSVTNEHLIDMDHEASFFGAFLVGGGGSGGGSTSEETISTVQEKQQNISPLVRERGPQRVAAHITGTRGRSNTLSSPNSKNEKALGRKINSWESSRSGHSFLSNLHLRNGELVIHEKGFYYIYSQTYFRFQEEIKENTKNDKQMVQYIYKYTSYPDPILLMKSARNSCWSKDAEYGLYSIYQGGIFELKENDRIFVSVTNEHLIDMDHEASFFGAFLVG
notes: Bivalent homodimer of single-chain TRAIL at the C-terminus of EHD2, FLAG-tagged
**Q.** Does B6 bind (EGFR-Fc fusion protein [6])?
**A.** Result: no binding

**Q.** Does B6 bind (HER2-Fc fusion protein)?
**A.** Result: no binding

**Q.** Does B6 bind [1]?
**A.** Result: binds

B7: anti-EGFR scFv (hu225) (scFv)
scFv: EVQLVESGGGLVQPGGSLRLSCAASGFSLTNYGVHWVRQAPGKGLEWLGVIWSGGNTDYNTPFTSRFTISRDNSKNTLYLQMNSLRAEDTAVYYCARALTYYDYEFAYWGQGTTVTVSSGGGGSGGGGSGGGGSDIQLTQSPSFLSASVGDRVTITCRASQSIGTNIHWYQQKPGKAPKLLIKYASESISGVPSRFSGSGSGTEFTLTISSLQPEDFATYYCQQNNNWPTTFGAGTKLEIKR
notes: also called monovalent anti-EGFR scFv; scFv directed against EGFR
**Q.** Does B7 bind (EGFR-Fc fusion protein [8])?
**A.** Result: binds
